# B1: HLPPB423 (bispecific antibody, human IgG1, kappa)
# heavy 1: not shown
# light 1: not shown
# heavy 2: EVQLVESGGGLVQPGGSLRLSCAASGYSFTGYTMNWVRQAPGKGLEWVALINPYKGVSTYNQKFKDRFTISVDKSKNTAYLQMNSLRAEDTAVYYCARSGYYGDSDWYFDVWGQGTLVTVSSASTKGPSVFPLAPSSKSTSGGTAALGCLVKDYFPEPVTVSWNSGALTSGVHTFPAVLQSSGLYSLSSVVTVPSSSLGTQTYICNVNHKPSNTKVDKKVEPKSCDKTHTCPPCPAPELLGGPSVFLFPPKPKDTLMISRTPEVTCVVVDVSHEDPEVKFNWYVDGVEVHNAKTKPREEQYNSTYRVVSVLTVLHQDWLNGKEYKCKVSNKALPAPIEKTISKAKGQPREPQVYTLPPSREEMTKNQVSLSCAVKGFYPSDIAVEWESNGQPENNYKTTPPVLDSDGSFFLVSKLTVDKSRWQQGNVFSCSVMHEALHNRFTQKSLSLSPGK
# light 2: not shown
# Biological target: T1, Biotinylated Human CD3 epsilon&CD3 delta Heterodimer Protein, His, Avitag&Tag Free (AcroBiosystems) (human, UniProt P07766 23-126; P04234 22-105)
# T1 construct: also called cluster of differentiation 3 (CD3); soluble CD3 antigen
# T1 sequence (P07766 23-126, stated change not applied, chain 1 of 2): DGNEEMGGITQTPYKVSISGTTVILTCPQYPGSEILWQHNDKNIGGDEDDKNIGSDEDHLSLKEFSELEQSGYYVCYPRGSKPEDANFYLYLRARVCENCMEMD
# T1 sequence (P04234 22-105, stated change not applied, chain 2 of 2): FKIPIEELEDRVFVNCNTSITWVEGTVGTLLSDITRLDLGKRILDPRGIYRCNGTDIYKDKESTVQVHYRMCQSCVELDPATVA
# Experiment: BLI, biotinylated CD3 epsilon/delta on the tip, antibody as analyte (FIG. 24C)
binder,measurement,value
B1,binding result,binds
